1 substance from paper PMC6030874 can be followed below.

This test addresses EGFP-MeCP2 R306C (mouse).

As for “NCoR1 (from UniProt O75376 1-2440) (natural protein)”, the methylation-dependent transcriptional repression of a luciferase reporter (untagged MeCP2 e1 in Mecp2-/y, Mbd2-/- mouse tail fibroblasts), relative to WT MeCP2 is 25 % of WT.
